Source: the supplement of paper PMC11316812
± gives the standard deviation of the averaged measurements.

What was measured:
MCF7 = assay: percentage of EdU-negative (G0-arrested) nuclei per well, 72 h; higher = more G0 arrest; details: reference: sequence is the full UniProt precursor, the tested protein was the secreted form or ectodomain
hTERT-HMEC = assay: as above; details: reference: sequence is the full UniProt precursor, the tested protein was the secreted form or ectodomain
[1] = protein concentration 0.0225 µM
[2] = protein concentration 0.03125 µM
[3] = protein concentration 0.3125 µM
[4] = protein concentration 0.0165525 µM
[5] = protein concentration 0.165525 µM
[6] = protein concentration 0.0215 µM
[7] = protein concentration 0.0357143 µM
[8] = protein concentration 0.357143 µM
[9] = protein concentration 0.01325 µM
[10] = protein concentration 0.1325 µM
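Also: secreted proteins added to cultured cells, EdU pulse at the end, nuclei found by Hoechst imaging, EdU status from nuclear versus surrounding ring intensity ratio, PBS as neutral control.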

Sequence	percentage of EdU-negative (MCF7; [1]) [%]	percentage of EdU-negative (MCF7; protein concentration 0.225 µM) [%]	percentage of EdU-negative (hTERT-HMEC; [1]) [%]	percentage of EdU-negative (hTERT-HMEC; protein concentration 0.225 µM) [%]	other results
MTLFPVLLFLVAGLLPSFPANEDKDPAFTALLTTQTQVQREIVNKHNELRRAVSPPARNMLKMEWNKEAAANAQKWANQCNYRHSNPKDRMTSLKCGENLYMSSASSSWSQAIQSWFDEYNDFDFGVGPKTPNAVVGHYTQVVWYSSYLVGCGNAYCPNQKVLKYYYVCQYCPAGNWANRLYVPYEQGAPCASCPDNCDDGLCTNGCKYEDLYSNCKSLKLTLTCKHQLVRDSCKASCNCSNSIY	24.2 ± 0.4	27.5 ± 3	4.68 ± 0.23	4.83 ± 0.81	
MTLILTSLLFFGLSLGPRTRVQAENLLKPILWAEPGPVITWHNPVTIWCQGTLEAQGYRLDKEGNSMSRHILKTLESENKVKLSIPSMMWEHAGRYHCYYQSPAGWSEPSDPLELVVTAYSRPTLSALPSPVVTSGVNVTLRCASRLGLGRFTLIEEGDHRLSWTLNSHQHNHGKFQALFPMGPLTFSNRGTFRCYGYENNTPYVWSEPSDPLQLLVSGVSRKPSLLTLQGPVVTPGENLTLQCGSDVGYIRYTLYKEGADGLPQRPGRQPQAGLSQANFTLSPVSRSYGGQYRCYGAHNVSSEWSAPSDPLDILIAGQISDRPSLSVQPGPTVTSGEKVTLLCQSWDPMFTFLLTKEGAAHPPLRLRSMYGAHKYQAEFPMSPVTSAHAGTYRCYGSRSSNPYLLSHPSEPLELVVSGATETLNPAQKKSDSKTAPHLQDYTVENLIRMGVAGLVLLFLGILLFEAQHSQRSPPRCSQEANSRKDNAPFRVVEPWEQI	28.3 ± 0.36	29 ± 2.8	4.68 ± 0.17	5.06 ± 0.98	
MTLLLLPLLLASLLASCSCNKANKHKPWIEAEYQGIVMENDNTVLLNPPLFALDKDAPLRYAGEICGFRLHGSGVPFEAVILDKATGEGLIRAKEPVDCEAQKEHTFTIQAYDCGEGPDGANTKKSHKATVHVRVNDVNEFAPVFVERLYRAAVTEGKLYDRILRVEAIDGDCSPQYSQICYYEILTPNTPFLIDNDGNIENTEKLQYSGERLYKFTVTAYDCGKKRAADDAEVEIQVKPTCKPSWQGWNKRIEYAPGAGSLALFPGIRLETCDEPLWNIQATIELQTSHVAKGCDRDNYSERALRKLCGAATGEVDLLPMPGPNANWTAGLSVHYSQDSSLIYWFNGTQAVQVPLGGPSGLGSGPQDSLSDHFTLSFWMKHGVTPNKGKKEEETIVCNTVQNEDGFSHYSLTVHGCRIAFLYWPLLESARPVKFLWKLEQVCDDEWHHYALNLEFPTVTLYTDGISFDPALIHDNGLIHPPRREPALMIGACWTEEKNKEKEKGDNSTDTTQGDPLSIHHYFHGYLAGFSVRSGRLESREVIECLYACREGLDYRDFESLGKGMKVHVNPSQSLLTLEGDDVETFNHALQHVAYMNTLRFATPGVRPLRLTTAVKCFSEESCVSIPEVEGYVVVLQPDAPQILLSGTAHFARPAVDFEGTNGVPLFPDLQITCSISHQVEAKKDESWQGTVTDTRMSDEIVHNLDGCEISLVGDDLDPERESLLLDTTSLQQRGLELTNTSAYLTIAGVESITVYEEILRQARYRLRHGAALYTRKFRLSCSEMNGRYSSNEFIVEVNVLHSMNRVAHPSHVLSSQQFLHRGHQPPPEMAGHSLASSHRNSMIPSAATLIIVVCVGFLVLMVVLGLVRIHSLHRRVSGAGGPPGASSDPKDPDLFWDDSALTIIVNPMESYQNRQSCVTGAVGGQQEDEDSSDSEVADSPSSDERRIIETPPHRY [Q9BQT9]	25.2 ± 1.4	26.1 ± 0.34	4.44 ± 0.21	5.534 ± 0.019	
MTLLPGLLFLTWLHTCLAHHDPSLRGHPHSHGTPHCYSAEELPLGQAPPHLLARGAKWGQALPVALVSSLEAASHRGRHERPSATTQCPVLRPEEVLEADTHQRSISPWRYRVDTDEDRYPQKLAFAECLCRGCIDARTGRETAALNSVRLLQSLLVLRRRPCSRDGSGLPTPGAFAFHTEFIHVPVGCTCVLPRSV [Q9P0M4]					percentage of EdU-negative (MCF7; [2]): 26.7 ± 2.1%; percentage of EdU-negative (MCF7; [3]): 26.1 ± 1.7%; percentage of EdU-negative (hTERT-HMEC; [2]): 5.54 ± 0.085%; percentage of EdU-negative (hTERT-HMEC; [3]): 5.3 ± 0.055%
MTLTLSVLICLGLSVGPRTCVQAGTLPKPTLWAEPASVIARGKPVTLWCQGPLETEEYRLDKEGLPWARKRQNPLEPGAKAKFHIPSTVYDSAGRYRCYYETPAGWSEPSDPLELVATGFYAEPTLLALPSPVVASGGNVTLQCDTLDGLLTFVLVEEEQKLPRTLYSQKLPKGPSQALFPVGPVTPSCRWRFRCYYYYRKNPQVWSNPSDLLEILVPGVSRKPSLLIPQGSVVARGGSLTLQCRSDVGYDIFVLYKEGEHDLVQGSGQQPQAGLSQANFTLGPVSRSHGGQYRCYGAHNLSPRWSAPSDPLDILIAGLIPDIPALSVQPGPKVASGENVTLLCQSWHQIDTFFLTKEGAAHPPLCLKSKYQSYRHQAEFSMSPVTSAQGGTYRCYSAIRSYPYLLSSPSYPQELVVSGPSGDPSLSPTGSTPTPGPEDQPLTPTGLDPQSGLGRHLGVVTGVSVAFVLLLFLLLFLLLRHRHQSKHRTSAHFYRPAGAAGPEPKDQGLQKRASPVADIQEEILNAAVKDTQPKDGVEMDAPAAASEAPQDVTYAQLHSLTLRREATEPPPSQEREPPAEPSIYAPLAIH	26.64 ± 0.18	24.8 ± 1.6	5.56 ± 0.57	4.64 ± 0.082	
MTMETQMSQNVCPRNLWLLQPLTVLLLLASADSQAAAPPKAVLKLEPPWINVLQEDSVTLTCQGARSPESDSIQWFHNGNLIPTHTQPSYRFKANNNDSGEYTCQTGQTSLSDPVHLTVLSEWLVLQTPHLEFQEGETIMLRCHSWKDKPLVKVTFFQNGKSQKFSHLDPTFSIPQANHSHSGDYHCTGNIGYTLFSSKPVTITVQVPSMGSSSPMGIIVAVVIATAVAAIVAAVVALIYCRKKRISANSTDPVKAAQFEPPGRQMIAIRKRQLEETNNDYETADGGYMTLNPRAPTDDDKNIYLTLPPNDHVNSNN					percentage of EdU-negative (MCF7; [4]): 26.5 ± 1.3%; percentage of EdU-negative (MCF7; [5]): 25.5 ± 0.26%; percentage of EdU-negative (hTERT-HMEC; [4]): 4.6 ± 0.053%; percentage of EdU-negative (hTERT-HMEC; [5]): 5.2 ± 0.11%
MTPALTALLCLGLSLGPRTRVQAGPFPKPTLWAEPGSVISWGSPVTIWCQGSLEAQEYQLDKEGSPEPLDRNNPLEPKNKARFSIPSMTQHHAGRYRCHYYSSAGWSEPSDPLELVMTGFYNKPTLSALPSPVVASGGNMTLRCGSQKGYHHFVLMKEGEHQLPRTLDSQQLHSGGFQALFPVGPVTPSHRWRFTCYYYYTNTPRVWSHPSDPLEILPSGVSRKPSLLTLQGPVLAPGQSLTLQCGSDVGYDRFVLYKEGERDFLQRPGQQPQAGLSQANFTLGPVSPSHGGQYRCYGAHNLSSEWSAPSDPLNILMAGQIYDTVSLSAQPGPTVASGENVTLLCQSRGYFDTFLLTKEGAAHPPLRLRSMYGAHKYQAEFPMSPVTSAHAGTYRCYGSYSSNPHLLSFPSEPLELMVSGHSGGSSLPPTGPPSTPASHAKDYTVENLIRMGMAGLVLVFLGILLFEAQHSQRNPQDAAGR [Q6PI73]	22.6 ± 0.32	24.9 ± 4.2	5.69 ± 0.33	5.12 ± 0.84	
MTPHRLLPPLLLLLALLLAASPGGALARCPGCGQGVQAGCPGGCVEEEDGGSPAEGCAEAEGCLRREGQECGVYTPNCAPGLQCHPPKDDEAPLRALLLGRGRCLPARAPAVAEENPKESKPQAGTARPQDVNRRDQQRNPGTSTTPSQPNSAGVQDTEMGPCRRHLDSVLQQLQTEVYRGAQTLYVPNCDHRGFYRKRQCRSSQGQRRGPCWCVDRMGKSLPGSPDGNGSSSCPTGSSG					percentage of EdU-negative (MCF7; [2]): 25 ± 1.6%; percentage of EdU-negative (MCF7; [3]): 25.79 ± 0.037%; percentage of EdU-negative (hTERT-HMEC; [2]): 4.84 ± 0.44%; percentage of EdU-negative (hTERT-HMEC; [3]): 5.17 ± 1%
MTPILTVLICLGLSLGPRTHVQAGHLPKPTLWAEPGSVIIQGSPVTLRCQGSLQAEEYHLYRENKSASWVRRIQEPGKNGQFPIPSITWEHAGRYHCQYYSHNHSSEYSDPLELVVTGAYSKPTLSALPSPVVTSGGNVTLQCVSQVAFDGFILCKEGEDEHPQRLNSHSHARGWSWAIFSVGPVSPSRRWSYRCYAYDSNSPYVWSLPSDLLELLVPGVSKKPSLSVQPGPMVAPGESLTLQCVSDVGYDRFVLYKEGERDFLQRPGWQPQAGLSQANFTLGPVSPSHGGQYRCYSAHNLSSEWSAPSDPLDILITGQFYDRPSLSVQPVPTVAPGKNVTLLCQSRGQFHTFLLTKEGAGHPPLHLRSEHQAQQNQAEFRMGPVTSAHVGTYRCYSSLSSNPYLLSLPSDPLELVVSEAAETLSPSQNKTDSTTTSLGQHPQDYTVENLIRMGVAGLVLVVLGILLFEAQHSQRSLQDAAGR [Q8N149]	23.9 ± 0.99	26.3 ± 3.1	5.36 ± 0.5	4.88 ± 0.47	
MTPILTVLICLGLSLGPRTHVQAGHLPKPTLWAEPGSVITQGSPVTLRCQGGQETQEYRLYREKKTALWITRIPQELVKKGQFPIPSITWEHAGRYRCYYGSDTAGRSESSDPLELVVTGAYIKPTLSAQPSPVVNSGGNVILQCDSQVAFDGFSLCKEGEDEHPQCLNSQPHARGSSRAIFSVGPVSPSRRWWYRCYAYDSNSPYEWSLPSDLLELLVLGVSKKPSLSVQPGPIVAPEETLTLQCGSDAGYNRFVLYKDGERDFLQLAGAQPQAGLSQANFTLGPVSRSYGGQYRCYGAHNLSSEWSAPSDPLDILIAGQFYDRVSLSVQPGPTVASGENVTLLCQSQGWMQTFLLTKEGAADDPWRLRSTYQSQKYQAEFPMGPVTSAHAGTYRCYGSQSSKPYLLTHPSDPLELVVSGPSGGPSSPTTGPTSTSGPEDQPLTPTGSDPQSGLGRHLGVVIGILVAVILLLLLLLLLFLILRHRRQGKHWTSTQRKADFQHPAGAVGPEPTDRGLQWRSSPAADAQEENLYAAVKHTQPEDGVEMDTRSPHDEDPQAVTYAEVKHSRPRREMASPPSPLSGEFLDTKDRQAEEDRQMDTEAAASEAPQDVTYAQLHSLTLRREATEPPPSQEGPSPAVPSIYATLAIH [A0A0B4J1W1]					percentage of EdU-negative (MCF7; [6]): 23.2 ± 2.5%; percentage of EdU-negative (MCF7; protein concentration 0.215 µM): 25.3 ± 0.95%; percentage of EdU-negative (hTERT-HMEC; [6]): 4.85 ± 0.58%; percentage of EdU-negative (hTERT-HMEC; protein concentration 0.215 µM): 5.72 ± 0.22%
MTPPERLFLPRVCGTTLHLLLLGLLLVLLPGAQGLPGVGLTPSAAQTARQHPKMHLAHSTLKPAAHLIGDPSKQNSLLWRANTDRAFLQDGFSLSNNSLLVPTSGIYFVYSQVVFSGKAYSPKATSSPLYLAHEVQLFSSQYPFHVPLLSSQKMVYPGLQEPWLHSMYHGAAFQLTQGDQLSTHTDGIPHLVLSPSTVFFGAFAL					percentage of EdU-negative (MCF7; [7]): 35.3 ± 2.4%; percentage of EdU-negative (MCF7; [8]): 42.8 ± 0.91%; percentage of EdU-negative (hTERT-HMEC; [7]): 6.4 ± 0.43%; percentage of EdU-negative (hTERT-HMEC; [8]): 6.94 ± 0.51%
MTPPKLRASLSPSLLLLLSGCLLAAARREKGAASNVAEPVPGPTGGSSGRFLSPEQHACSWQLLLPAPEAAAGSELALRCQSPDGARHQCAYRGHPERCAAYAARRAHFWKQVLGGLRKKRRPCHDPAPLQARLCAGKKGHGAELRLVPRASPPARPTVAGFAGESKPRARNRGRTRERASGPAAGTPPPQSAPPKENPSERKTNEGKRKAALVPNEERPMGTGPDPDGLDGNAELTETYCAEKWHSLCNFFVNFWNG [Q8TAT2]					percentage of EdU-negative (MCF7; [9]): 25.1 ± 0.15%; percentage of EdU-negative (MCF7; [10]): 27.7 ± 1.3%; percentage of EdU-negative (hTERT-HMEC; [9]): 4.87 ± 0.1%; percentage of EdU-negative (hTERT-HMEC; [10]): 6.22 ± 0.9%
